For the test, the target named is T1, IMAB362.
T1 construct: It is the target of the phage display selection; also called IMAB362 antibody
As to the kind of experiment: peptide microarray, 1 µg/ml IMAB362, fluorescence signal; this construct is the reference.

Bridges are numbered along the chain shown (N, C = ends). Where no end group is shown, it is not given here.

T1 sequence (VH, as listed by the source limits assumed, chain 1 of 2): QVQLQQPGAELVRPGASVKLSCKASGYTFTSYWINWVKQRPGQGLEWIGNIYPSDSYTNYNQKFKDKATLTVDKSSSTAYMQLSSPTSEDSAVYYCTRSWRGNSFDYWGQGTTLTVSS
T1 sequence (VL, as listed by the source limits assumed, chain 2 of 2): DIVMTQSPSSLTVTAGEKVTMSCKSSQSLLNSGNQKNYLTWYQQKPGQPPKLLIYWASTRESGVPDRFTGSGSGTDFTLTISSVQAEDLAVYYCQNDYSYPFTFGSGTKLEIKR

B1: Cyclopeptide-GGS-K(X) of ACHYSYPGVCG (Seq. 2) (peptide)
peptide: ACHYSYPGVCGGGSK
modifications: disulfide 2-10 (inferred); also: C-terminal Lys carries an unspecified functional group X for microarray attachment
notes: Microarray construct; also called parental peptide (cyclic, immobilized through C-terminus)
On to B1, for which the “% Affinity compared to hit peptide” value was 100%.

B2: Cyclopeptide-GGS-K(X) of ACHLNYPGYCG (Seq. 1) (peptide)
peptide: ACHLNYPGYCGGGSK
modifications: disulfide 2-10 (inferred); also: C-terminal Lys carries an unspecified functional group X for microarray attachment
notes: as for B1
In the case of B2, the “% Affinity compared to hit peptide” value is 100%.

B3: Cyclopeptide-GGS-K(X) of ACHLGYPGRCG (Seq. 3) (peptide)
peptide: ACHLGYPGRCGGGSK
modifications: disulfide 2-10 (inferred); also: C-terminal Lys carries an unspecified functional group X for microarray attachment
notes: as for B1
Regarding B3, the “% Affinity compared to hit peptide” value worked out at 100%.
